Results reported in the RNAGym collection of RNA variant scans (doi:10.1073/pnas.2313332121).

B1: TPR t1 (parent)
chain: GACCAAUCUGCCCUCAGAGCUCGAGAACAUCUUCGGAUGCAGAGGAGGCAGGCUUCGGUGGCGCGAUAGCGCCAACGUCCUCAACCUCCAAUGCAUCCCACCACAUGAUGAUGCCUGAAGAGCCUUGGUUUUUUG

Variants of: B1
Test: polymerase ribozyme fitness, log enrichment relative to wild type (log ratio); higher = more active; in vitro selection for triplet polymerase activity
Method in brief: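 A heterodimeric triplet polymerase ribozyme had each of its subunits mutagenized by PCR into a library, which was transcribed. One round of in vitro selection, done in triplicate, annealed each library with a biotinylated primer, its partner subunit and triplets, then incubated it frozen at −7 °C before gel excision of extended constructs, streptavidin-bead capture and RT-PCR. Fitness is the logarithm of genotype enrichment relative to wild-type enrichment, based on Illumina sequencing of inputs and outputs and inverse-variance-weighted replicate averages. A base-2 logarithm is used, and genotypes were kept only with ≥10 input reads and ≥1 read per output.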

Variant	polymerase ribozyme fitness (log ratio)
C12G A16C C64U	-2.46
C15U A43C C76U	-3.95
G61U G122A	-0.264
U32G C56G	-6.87
C99U G113A G117A	-5.78
G39A U78A A108G A111C	-1.88
C8U C56G	-0.121
C12G C49G C72A C89U C102A	-1.91
G48C C53A C79G C99A C124A	-7.85
A43U U59A A66U	-4.54
A37C C89U C115G	-3.26
G39U C53U	-0.876
A6G C49U G69U	-0.168
G45U A46C U54C A90G	-1.94
C62U G122U	0.2
U30A	-4.65
C49U C101G	-2.04
C11U G93C G122A	-0.0927
C86G A90C U96C U112A C124A	-1.78
G47U G63A	-2.11
G48C C104U G135U	-1.53

Variant	polymerase ribozyme fitness (log ratio)
G52U U106C A118G	-0.754
G47A G61C U81C C86A U129C	-4.11
A18U A121C	-0.0692
G48U U106A G128C	-3.74
G35U C80A	-6.8
G48U C114U	-2.73
U81A C104U	-0.577
C8G C20U G113C	-1.52
U54G U55G C73U C102G G110U G120C	-6.74
G10U C11A G36U U78G C115G	-5.09
C8A G45U C56U C73U A84C A95U	-1.85
C15A G57U G61A U112C G113A U132C	-6.11
G44U U133G	-1.78
G60C G110A	-1
C20G U55G C72U A119G	-2.6
U7A A16C G63A A121U	-0.146
C8G G36U G47A C72G U92G C115A	-6.07
C11G C34U	-2.8
C97U A105C	-4.58
C4G U59C G65A C85U G110C	-5.92
A18G G113U	-4.5

Variant	polymerase ribozyme fitness (log ratio)
C15U U32C	-1.42
C56G U96G G120U	-1.41
C13G A90G	-1.86
C53U U55G C104U	0.237
C11U C53U	0.00138
G10U G48U G63A C85U C86G	-3.3
C98U U129C	-1.46
A50C G63U U81A U129A	-2.04
C3U C13A G61A C98U	-3.6
C13U G48U G63C G110C	-4.51
G44A C70G C101G C114U G128C	-6.56
C8U A16C C64U U112C U132A	1.19
A5C C64A U112C	-6.42
G47A C72A C82G C88A	-2.25
A41G C56U C72A G113A G128U	-5.53
A2G G71A	-0.784
C12A G42A C70U U96A G135C	-4.85
G61U C72G	-0.168
U9A C13G G61U C123G	1.99
G10A G120U	1.07
A43U G48U A50U C62U C88G C101G U112A	-5.19

Variant	polymerase ribozyme fitness (log ratio)
C49A U54A G60U U81A G128U	-2
C56U C72U C79U C101A	-1.28
C11A C53U	-1.77
G71U A75G	-0.135
U7G G69C A100U	-2.07
C49U G58U C62G	-1.16
C3A C73G A119U U129C	-1.93
G52A G57A G113A	-0.88
C3U G107A C124G G128A U133G	-4.53
C62U G110A	-1.23
G63A A111G	-0.659
C13G C40A	-0.524
C62U U112A	1.02
A37U G113A C123U	-2.5
A74C U87G U129C	-0.576
C40A G61U U109G	-6.14
A18C A37G C62G	-6.59
C34G C94U	-6.86
A6G C79G C104A	-4.14
G57C C82U	0.151
